# In PMC3752698:
# Biological target: complement component C1q
# Test: SPR
binder,measurement,value
soluble SCARF1 protein (receptor) SELDPKGQHVCVASSPSAELQCCAGWRQKDQECTIPICEGPDACQKDEVCVKPGLCRCKPGFFGAHCSSRCPGQYWGPDCRESCPCHPHGQCEPATGACQCQADRWGARCEFPCACGPHGRCDPATGVCHCEPGWWSSTCRRPCQCNTAAARCEQATGACVCKPGWWGRRCSFRCNCHGSPCEQDSGRCACRPGWWGPECQQQCECVRGRCSAASGECTCPPGFRGARCELPCPAGSHGVQCAHSCGRCKHNEPCSPDTGSCESCEPGWNGTQCQQPCLPGTFGESCEQQCPHCRHGEACEPDTGHCQRCDPGWLGPRCEDPCPTGTFGEDCGSTCPTCVQGSCDTVTGDCVCSAGYWGPSCNASCPAGFHGNNCSVPCECPEGLCHPVSGSCQPGSGSRDT,Kd,124 nM
